What was measured:
HeLa Kyoto [1] = assay: solubility change mitosis vs G1/S (difference of NP-40 vs SDS log2 ratios) (log2 ratio difference); higher = more soluble in mitosis
HeLa Kyoto [2] = assay: solubility in G1/S (NP-40 vs SDS abundance) (log2 ratio); higher = more soluble; details: cell cycle stage: G1/S
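Wherever solubility change mitosis vs G1/S (difference of NP-40 vs SDS log2 ratios) is given: synchronized HeLa Kyoto cells (double thymidine block for G1/S, nocodazole release for mitosis), protein amounts in NP-40 versus SDS lysates quantified by mass spectrometry, three biological replicates.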
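Wherever solubility in G1/S (NP-40 vs SDS abundance) is given: HeLa Kyoto cells arrested at G1/S by double thymidine block, proteins quantified by TMT10plex mass spectrometry in mild NP-40 versus SDS extracts, three biological replicates.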

COL4A1, sequence (chain, as listed by the source): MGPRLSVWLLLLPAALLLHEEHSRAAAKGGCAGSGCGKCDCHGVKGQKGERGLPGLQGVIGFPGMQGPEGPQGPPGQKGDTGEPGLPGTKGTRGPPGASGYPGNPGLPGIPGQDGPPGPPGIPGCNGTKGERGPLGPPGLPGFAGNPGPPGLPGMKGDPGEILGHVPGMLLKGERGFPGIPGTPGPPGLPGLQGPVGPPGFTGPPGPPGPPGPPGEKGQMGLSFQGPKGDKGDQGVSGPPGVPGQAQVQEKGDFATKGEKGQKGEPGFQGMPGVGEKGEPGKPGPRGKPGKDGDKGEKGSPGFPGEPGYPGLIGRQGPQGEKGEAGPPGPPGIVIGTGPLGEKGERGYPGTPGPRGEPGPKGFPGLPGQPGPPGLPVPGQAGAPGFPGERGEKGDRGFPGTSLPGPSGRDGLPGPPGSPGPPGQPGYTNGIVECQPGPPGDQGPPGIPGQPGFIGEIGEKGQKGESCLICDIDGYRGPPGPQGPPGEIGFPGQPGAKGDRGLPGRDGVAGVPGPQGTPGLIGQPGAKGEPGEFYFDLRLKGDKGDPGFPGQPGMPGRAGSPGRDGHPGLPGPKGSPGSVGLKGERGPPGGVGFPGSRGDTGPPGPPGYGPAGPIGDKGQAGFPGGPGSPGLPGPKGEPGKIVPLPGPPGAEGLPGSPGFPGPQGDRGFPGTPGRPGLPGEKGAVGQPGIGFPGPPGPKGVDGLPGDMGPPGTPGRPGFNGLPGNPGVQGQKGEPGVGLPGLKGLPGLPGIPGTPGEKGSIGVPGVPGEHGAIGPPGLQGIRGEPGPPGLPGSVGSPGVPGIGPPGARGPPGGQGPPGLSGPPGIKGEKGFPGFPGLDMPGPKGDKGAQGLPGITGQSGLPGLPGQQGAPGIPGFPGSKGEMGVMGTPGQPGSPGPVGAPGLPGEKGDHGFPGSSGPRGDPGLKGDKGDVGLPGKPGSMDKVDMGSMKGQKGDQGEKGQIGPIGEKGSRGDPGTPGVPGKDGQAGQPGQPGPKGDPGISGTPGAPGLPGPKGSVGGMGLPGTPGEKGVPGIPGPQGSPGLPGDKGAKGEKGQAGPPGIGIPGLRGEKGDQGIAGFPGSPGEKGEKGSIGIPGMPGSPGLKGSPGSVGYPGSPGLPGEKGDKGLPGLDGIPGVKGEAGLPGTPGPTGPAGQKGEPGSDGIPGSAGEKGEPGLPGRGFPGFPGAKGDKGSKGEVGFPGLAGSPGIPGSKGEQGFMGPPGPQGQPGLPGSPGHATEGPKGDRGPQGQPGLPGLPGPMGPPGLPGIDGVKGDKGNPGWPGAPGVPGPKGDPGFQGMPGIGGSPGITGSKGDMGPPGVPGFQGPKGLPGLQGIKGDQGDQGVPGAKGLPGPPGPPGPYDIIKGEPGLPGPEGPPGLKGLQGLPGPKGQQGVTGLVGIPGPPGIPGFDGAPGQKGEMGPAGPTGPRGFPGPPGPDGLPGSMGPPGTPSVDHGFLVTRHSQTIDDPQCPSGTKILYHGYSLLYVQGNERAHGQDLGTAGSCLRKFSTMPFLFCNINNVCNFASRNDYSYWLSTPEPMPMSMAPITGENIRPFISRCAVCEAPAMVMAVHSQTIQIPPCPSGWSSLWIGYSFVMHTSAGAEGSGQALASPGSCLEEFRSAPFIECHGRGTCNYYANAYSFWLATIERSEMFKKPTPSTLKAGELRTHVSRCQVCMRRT

Substance | solubility change mitosis (log2) (HeLa Kyoto [1]) | solubility in G1/S (log2) (HeLa Kyoto [2])
MAEEVSTLMKATVLMRQPGRVQEIVGALRKGGGDRLQVISDFDMTLSRFAYNGKRCPSSYNILDNSKIISEECRKELTALLHHYYPIEIDPHRTVKEKLPHMVEWWTKAHNLLCQQKIQKFQIAQVVRESNAMLREGYKTFFNTLYHNNIPLFIFSAGIGDILEEIIRQMKVFHPNIHIVSNYMDFNEDGFLQGFKGQLIHTYNKNSSACENSGYFQQLEGKTNVILLGDSIGDLTMADGVPGVQNILKIGFLNDKVEERRERYMDSYDIVLEKDETLDVVNGLLQHILCQGVQLEMQGP [NT5C3B] | -0.136 | 0.00588
MQAKKRYFILLSAGSCLALLFYFGGLQFRASRSHSRREEHSGRNGLHHPSPDHFWPRFPDALRPFVPWDQLENEDSSVHISPRQKRDANSSIYKGKKCRMESCFDFTLCKKNGFKVYVYPQQKGEKIAESYQNILAAIEGSRFYTSDPSQACLFVLSLDTLDRDQLSPQYVHNLRSKVQSLHLWNNGRNHLIFNLYSGTWPDYTEDVGFDIGQAMLAKASISTENFRPNFDVSIPLFSKDHPRTGGERGFLKFNTIPPLRKYMLVFKGKRYLTGIGSDTRNALYHVHNGEDVVLLTTCKHGKDWQKHKDSRCDRDNTEYEKYDYREMLHNATFCLVPRGRRLGSFRFLEALQAACVPVMLSNGWELPFSEVINWNQAAVIGDERLLLQIPSTIRSIHQDKILALRQQTQFLWEAYFSSVEKIVLTTLEIIQDRIFKHISRNSLIWNKHPGGLFVLPQYSSYLGDFPYYYANLGLKPPSKFTAVIHAVTPLVSQSQPVLKLLVAAAKSQYCAQIIVLWNCDKPLPAKHRWPATAVPVVVIEGESKVMSSRFLPYDNIITDAVLSLDEDTVLSTTEVDFAFTVWQSFPERIVGYPARSHFWDNSKERWGYTSKWTNDYSMVLTGAAIYHKYYHYLYSHYLPASLKNMVDQLANCEDILMNFLVSAVTKLPPIKVTQKKQYKETMMGQTSRASRWADPDHFAQRQSCMNTFASWFGYMPLIHSQMRLDPVLFKDQVSILRKKYRDIERL [EXT1] | -0.163 | -0.14
HECTD4 | 0.00851 | -0.212
CHD7 | 0.0296 | -0.18
MLGTLRAMEGEDVEDDQLLQKLRASRRRFQRRMQRLIEKYNQPFEDTPVVQMATLTYETPQGLRIWGGRLIKERNEGEIQDSSMKPADRTDGSVQAAAWGPELPSHRTVLGADSKSGEVDATSDQEESVAWALAPAVPQSPLKNELRRKYLTQVDILLQGAEYFECAGNRAGRDVRVTPLPSLASPAVPAPGYCSRISRKSPGDPAKPASSPREWDPLHPSSTDMALVPRNDSLSLQETSSSSFLSSQPFEDDDICNVTISDLYAGMLHSMSRLLSTKPSSIISTKTFIMQNWNSRRRHRYKSRMNKTYCKGARRSQRSSKENFIPCSEPVKGTGALRDCKNVLDVSCRKTGLKLEKAFLEVNRPQIHKLDPSWKERKVTPSKYSSLIYFDSSATYNLDEENRFRTLKWLISPVKIVSRPTIRQGHGENRQREIEIRFDQLHREYCLSPRNQPRRMCLPDSWAMNMYRGGPASPGGLQGLETRRLSLPSSKAKAKSLSEAFENLGKRSLEAGRCLPKSDSSSSLPKTNPTHSATRPQQTSDLHVQGNSSGIFRKSVSPSKTLSVPDKEVPGHGRNRYDEIKEEFDKLHQKYCLKSPGQMTVPLCIGVSTDKASMEVRYQTEGFLGKLNPDPHFQGFQKLPSSPLGCRKSLLGSTAIEAPSSTCVARAITRDGTRDHQFPAKRPRLSEPQGSGRQGNSLGASDGVDNTVRPGDQGSSSQPNSEERGENTSYRMEEKSDFMLEKLETKSV [HJURP] | 0.197 | -0.154
MEEVREGHALGGGMEADGPASLQELPPSPRSPSPPPSPPPLPSPPSLPSPAAPEAPELPEPAQPSEAHARQLLLEEWGPLSGGLELPQRLTWKLLLLRRPLYRNLLRSPNPEGINIYEPAPPTGPTQRPLETLGNFRGWYIRTEKLQQNQSWTVKQQCVDLLAEGLWEELLDDEQPAITVMDWFEDSRLDACVYELHVWLLAADRRTVIAQHHVAPRTSGRGPPGRWVQVSHVFRHYGPGVRFIHFLHKAKNRMEPGGLRRTRVTDSSVSVQLRE [NCCRP1] | -0.0982 | 0.178
MASPEPRRGGDGAAQAARKTRVEANSPLPKNSGSLNEAEALNPEVTLSSEGSLNLEDILYLEDTGDLDETLYVQETEKAEEALYIEEAMQPDEALHVEEPGNPEETVCVEETTEPDRIQFVEGPVEPGKPTSPEHVVYEGETVTRAEKSNPEESLRAEQSPSMEENLSIEDLELLEGRFQQCVQAVAQLEEERDQLIHELVLLREPALQEVQQVHQDILAAYKLHAQAELERDGLREEIRLVKQKLFKVTKECVAYQYQLECRQQDVAQFADFREVLTTRATQLSEELAQLRDAYQKQKEQLRQQLEAPPSQRDGHFLQESRRLSAQFENLMAESRQDLEEEYEPQFLRLLERKEAGTKALQRTQAEIQEMKEALRPLQAEARQLRLQNRNLEDQIALVRQKRDEEVQQYREQLEEMEERQRQLRNGVQLQQQKNKEMEQLRLSLAEELSTYKAMLLPKSLEQADAPTSQAGGMETQSQGAV [SYNC] | 0.0968 | 0.502
MSRQTATALPTGTSKCPPSQRVPALTGTTASNNDLASLFECPVCFDYVLPPILQCQSGHLVCSNCRPKLTCCPTCRGPLGSIRNLAMEKVANSVLFPCKYASSGCEITLPHTEKADHEELCEFRPYSCPCPGASCKWQGSLDAVMPHLMHQHKSITTLQGEDIVFLATDINLPGAVDWVMMQSCFGFHFMLVLEKQEKYDGHQQFFAIVQLIGTRKQAENFAYRLELNGHRRRLTWEATPRSIHEGIATAIMNSDCLVFDTSIAQLFAENGNLGINVTISMC [SIAH1] | -0.11 | 0.247
MGQCVTKCKNPSSTLGSKNGDREPSNKSHSRRGAGHREEQVPPCGKPGGDILVNGTKKAEAATEACQLPTSSGDAGRESKSNAEESSLQRLEELFRRYKDEREDAILEEGMERFCNDLCVDPTEFRVLLLAWKFQAATMCKFTRKEFFDGCKAISADSIDGICARFPSLLTEAKQEDKFKDLYRFTFQFGLDSEEGQRSLHREIAIALWKLVFTQNNPPVLDQWLNFLTENPSGIKGISRDTWNMFLNFTQVIGPDLSNYSEDEAWPSLFDTFVEWEMERRKREGEGRGALSSGPEGLCPEEQT [DCUN1D3] | -0.131 | 0.0421
MSISLSSLILLPIWINMAQIQQGGPDEKEKTTALKDLLSRIDLDELMKKDEPPLDFPDTLEGFEYAFNEKGQLRHIKTGEPFVFNYREDLHRWNQKRYEALGEIITKYVYELLEKDCNLKKVSIPVDATESEPKSFIFMSEDALTNPQKLMVLIHGSGVVRAGQWARRLIINEDLDSGTQIPFIKRAVAEGYGVIVLNPNENYIEVEKPKIHVQSSSDSSDEPAEKRERKDKVSKETKKRRDFYEKYRNPQREKEMMQLYIRENGSPEEHAIYVWDHFIAQAAAENVFFVAHSYGGLAFVELMIQREADVKNKVTAVALTDSVHNVWHQEAGKTIREWMRENCCNWVSSSEPLDTSVESMLPDCPRVSAGTDRHELTSWKSFPSIFKFFTEASEAKTSSLKPAVTRRSHRIKHEEL [FAM172A] | -0.00146 | 0.202
MVTNKMTAAFRNPSGKQVATDKVAEKLSSTLSWVKNTVSHTVSQMASQVASPSTSLHTTSSSTTLSTPALSPSSPSQLSPDDLELLAKLEEQNRLLETDSKSLRSVNGSRRNSGSSLVSSSSASSNLSHLEEDSWILWGRIVNEWEDVRKKKEKQVKELVHKGIPHHFRAIVWQLLCSAQSMPIKDQYSELLKMTSPCEKLIRRDIARTYPEHNFFKEKDSLGQEVLFNVMKAYSLVDREVGYCQGSAFIVGLLLMQMPEEEAFCVFVKLMQDYRLRELFKPSMAELGLCMYQFECMIQEHLPELFVHFQSQSFHTSMYASSWFLTIFLTTFPLPIATRIFDIFMSEGLEIVFRVGLALLQMNQAELMQLDMEGMLQHFQKVIPHQFDGVPDKLIQAAYQVKYNSKKMKKLEKEYTTIKTKEMEEQVEIKRLRTENRLLKQRIETLEKHKCSSNYNEDFVLQLEKELVQARLSEAESQCALKEMQDKVLDIEKRNNSLPDENNIARLQEELIAVKLREAEAIMGLKELRQQVKDLEEHWQRHLARTTGRWKDPPKKNAMNELQDELMTIRLREAETQAEIREIKQRMMEMETQNQINSNHLRRAEQEVISLQEKVQYLSAQNKGLLTQLSEAKRKQAEIECKNKEEVMAVRLREADSIAAVAELRQHIAELEIQKEEGKLQGQLNKSDSNQYIGELKDQIAELNHELRCLKGQRGFSGQPPFDGIHIVNHLIGDDESFHSSDEDFIDNSLQETGVGFPLHGKSGSMSLDPAVADGSESETEDSVLETRESNQVVQKERPPRRRESYSTTV [EVI5] | -0.288 | 0.129
MPDNRQPRNRQPRIRSGNEPRSAPAMEPDGRGAWAHSRAALDRLEKLLRCSRCTNILREPVCLGGCEHIFCSNCVSDCIGTGCPVCYTPAWIQDLKINRQLDSMIQLCSKLRNLLHDNELSDLKEDKPRKSLFNDAGNKKNSIKMWFSPRSKKVRYVVSKASVQTQPAIKKDASAQQDSYEFVSPSPPADVSERAKKASARSGKKQKKKTLAEINQKWNLEAEKEDGEFDSKEESKQKLVSFCSQPSVISSPQINGEIDLLASGSLTESECFGSLTEVSLPLAEQIESPDTKSRNEVVTPEKVCKNYLTSKKSLPLENNGKRGHHNRLSSPISKRCRTSILSTSGDFVKQTVPSENIPLPECSSPPSCKRKVGGTSGRKNSNMSDEFISLSPGTPPSTLSSSSYRRVMSSPSAMKLLPNMAVKRNHRGETLLHIASIKGDIPSVEYLLQNGSDPNVKDHAGWTPLHEACNHGHLKVVELLLQHKALVNTTGYQNDSPLHDAAKNGHVDIVKLLLSYGASRNAVNIFGLRPVDYTDDESMKSLLLLPEKNESSSASHCSVMNTGQRRDGPLVLIGSGLSSEQQKMLSELAVILKAKKYTEFDSTVTHVVVPGDAVQSTLKCMLGILNGCWILKFEWVKACLRRKVCEQEEKYEIPEGPRRSRLNREQLLPKLFDGCYFYLWGTFKHHPKDNLIKLVTAGGGQILSRKPKPDSDVTQTINTVAYHARPDSDQRFCTQYIIYEDLCNYHPERVRQGKVWKAPSSWFIDCVMSFELLPLDS [BARD1] | 0.187 | -0.332
MLRWTRAWRLPREGLGPHGPSFARVPVAPSSSSGGRGGAEPRPLPLSYRLLDGEAALPAVVFLHGLFGSKTNFNSIAKILAQQTGRRVLTVDARNHGDSPHSPDMSYEIMSQDLQDLLPQLGLVPCVVVGHSMGGKTAMLLALQRPELVERLIAVDISPVESTGVSHFATYVAAMRAINIADELPRSRARKLADEQLSSVIQDMAVRQHLLTNLVEVDGRFVWRVNLDALTQHLDKILAFPQRQESYLGPTLFLLGGNSQFVHPSHHPEIMRLFPRAQMQTVPNAGHWIHADRPQDFIAAIRGFLV [ABHD11] | 0.0439 | 0.492
PEAK1 | 0.302 | -0.569
COL4A1 | 0.225 | -0.0938
MIEVVCNDRLGKKVRVKCNTDDTIGDLKKLIAAQTGTRWNKIVLKKWYTIFKDHVSLGDYEIHDGMNLELYYQ [UBL5] | 0.566 | -1.06

From the supplement of paper PMC5998384
